Experimental data published in patent publication US20030186329A1, “Use of substrate subtraction libraries to distinguish enzyme specificities” (The Scripps Research Institute, priority 1998, published 2003).

Assays:
[1] = biological target: urokinase-type plasminogen activator (u-PA) (human) (UniProt P00749); assay: ratio of the rate constants for inhibition of u-PA, wild type against variant
[2] = biological target: urokinase-type plasminogen activator (u-PA) (human) (UniProt P00749); assay: inhibition kinetics, residual enzymatic activity
[3] = biological target: tissue plasminogen activator (t-PA) (human) (UniProt P00750); assay: inhibition kinetics, residual enzymatic activity
Sequence of tissue plasminogen activator (t-PA) (human) (P00750 36-562 limits assumed): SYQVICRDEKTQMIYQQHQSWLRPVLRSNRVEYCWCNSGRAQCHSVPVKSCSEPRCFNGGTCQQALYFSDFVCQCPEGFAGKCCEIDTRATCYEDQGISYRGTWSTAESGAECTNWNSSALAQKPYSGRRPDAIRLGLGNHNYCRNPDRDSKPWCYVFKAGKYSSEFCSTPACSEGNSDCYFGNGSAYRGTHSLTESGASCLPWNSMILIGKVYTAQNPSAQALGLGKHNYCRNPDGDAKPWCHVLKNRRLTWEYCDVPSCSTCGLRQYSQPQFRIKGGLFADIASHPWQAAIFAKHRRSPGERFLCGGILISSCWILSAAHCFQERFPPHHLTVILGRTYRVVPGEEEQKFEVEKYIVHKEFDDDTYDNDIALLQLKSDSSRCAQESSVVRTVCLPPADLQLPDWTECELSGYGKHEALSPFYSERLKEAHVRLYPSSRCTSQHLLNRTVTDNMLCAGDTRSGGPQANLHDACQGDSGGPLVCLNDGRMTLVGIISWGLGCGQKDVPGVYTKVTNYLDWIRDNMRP

[4] = biological target: tissue plasminogen activator (t-PA) (human) (UniProt P00750); assay: ratio of the rate constants for inhibition of t-PA and u-PA
[5] = biological target: urokinase-type plasminogen activator (u-PA) (human) (UniProt P00749); assay: inhibition kinetics, residual enzymatic activity, indirect chromogenic assay
[6] = biological target: urokinase-type plasminogen activator (u-PA) (human) (UniProt P00749); assay: ratio of the rate constants for inhibition of u-PA and t-PA

| fold reduction of activity against wild type PAI-1 [1] [fold] | second order rate constant for inhibition [2] [M⁻¹ s⁻¹] | second order rate constant for inhibition [3] [M⁻¹ s⁻¹] | t-PA/u-PA Selectivity [4] | second order rate constant for inhibition [5] [M⁻¹ s⁻¹] | fold specificity toward u-PA over t-PA [6] [fold] | Substance |
| --- | --- | --- | --- | --- | --- | --- |
| 190 | 100000 | 1.4e+06 | 14 |  |  | PAI-1/P3R (from UniProt P05121 24-402) |
|  | 29000 | 1.4e+06 | 48 |  |  | PAI-1/P4Q, P3R (from UniProt P05121 24-402) |
|  |  |  |  | 1.9e+07 | 11.9 | wild type plasminogen activator inhibitor type 1 (PAI-1) (from UniProt P05121 24-402) (other; other documents disagree on this pair) |
